In patent US20020058247A1 (TRIPEP, published 2002):

B1: GKSLEWIGNINPYYGSTSYN (SEQ. ID. No. 31) (peptide)
peptide: GKSLEWIGNINPYYGSTSYN
notes: also called Peptide # 28
B2: NPYYGSTSYNQKFKGKATLT (SEQ. ID. No. 32) (peptide)
peptide: NPYYGSTSYNQKFKGKATLT
notes: also called Peptide # 29
B3: VKLQQSGTEVVKPGASVKLS (SEQ. ID. No. 4) (peptide)
peptide: VKLQQSGTEVVKPGASVKLS
notes: also called Peptide # 1
B4: IQLQQSGAELVKPGASVKIS (SEQ. ID. No. 27) (peptide)
peptide: IQLQQSGAELVKPGASVKIS
notes: also called Peptide # 24
B5: TGFAYWGQGTLVTVSAAKTT (SEQ. ID. No. 37) (peptide)
peptide: TGFAYWGQGTLVTVSAAKTT
notes: also called Peptide # 34
B6: PVEEEDTATYYCQHSWEIPY (SEQ. ID. No. 23) (peptide)
peptide: PVEEEDTATYYCQHSWEIPY
notes: also called Peptide # 20
B7: EKFKGRATLSVDKSSSTAYM (SEQ. ID. No. 10) (peptide)
peptide: EKFKGRATLSVDKSSSTAYM
notes: also called Peptide # 7
B8: SGTDFTLNIHPVEEEDTATY (SEQ. ID. No. 22) (peptide)
peptide: SGTDFTLNIHPVEEEDTATY
B9: VDKSSSTAYMELTRLTSEDS (SEQ. ID. No. 11) (peptide)
peptide: VDKSSSTAYMELTRLTSEDS
notes: also called Peptide # 8
B10: TFGGGTKLEIKRADAAPAV (SEQ. ID. No. 25) (peptide)
peptide: TFGGGTKLEIKRADAAPAV
notes: also called Peptide # 22
B11: LIKYASNLESGVPARFSGSG (SEQ. ID. No. 20) (peptide)
peptide: LIKYASNLESGVPARFSGSG
B12: QKFKGKATLTVDKSSSTAYM (SEQ. ID. No. 33) (peptide)
peptide: QKFKGKATLTVDKSSSTAYM
notes: also called Peptide # 30
B13: EQGLEWIGWIFPGEGSTEYN (SEQ. ID. No. 8) (peptide)
peptide: EQGLEWIGWIFPGEGSTEYN
notes: also called Peptide # 5
B14: DYYRRYFDLWGQGTTVTVS (SEQ. ID. No. 14) (peptide)
peptide: DYYRRYFDLWGQGTTVTVS
notes: also called Peptide # 11
B15: AVYYCARGKGTGFAYWGQGT (SEQ. ID. No. 36) (peptide)
peptide: AVYYCARGKGTGFAYWGQGT
notes: also called Peptide # 33
B16: KRADAAPAVSIFPPSSKLG (SEQ. ID. No. 26) (peptide)
peptide: KRADAAPAVSIFPPSSKLG
notes: also called Peptide # 23
B17: YCQHSWEIPYTFGGGTKLEI (SEQ. ID. No. 24) (peptide)
peptide: YCQHSWEIPYTFGGGTKLEI
notes: also called Peptide # 21
B18: AVYFCARGDYDYYRRYFDLW (SEQ. ID. No. 13) (peptide)
peptide: AVYFCARGDYDYYRRYFDLW
notes: also called Peptide # 10
B19: TSSYSYMHWYQQKPGQPPKL (SEQ. ID. No. 18) (peptide)
peptide: TSSYSYMHWYQQKPGQPPKL
B20: VDKSSSTAYMQLNSLTSEDS (SEQ. ID. No. 34) (peptide)
peptide: VDKSSSTAYMQLNSLTSEDS
notes: also called Peptide # 31
B21: FPGEGSTEYNEKFKGRATLS (SEQ. ID. No. 9) (peptide)
peptide: FPGEGSTEYNEKFKGRATLS
notes: also called Peptide # 6
B22: GVPARFSGSGSGTDFTLNIH (SEQ. ID. No. 21) (peptide)
peptide: GVPARFSGSGSGTDFTLNIH
B23: YDIDWVRQTPEQGLEWIGWI (SEQ. ID. No. 7) (peptide)
peptide: YDIDWVRQTPEQGLEWIGWI
notes: also called Peptide # 4
B24: QLNSLTSEDSAVYYCARGKG (SEQ. ID. No. 35) (peptide)
peptide: QLNSLTSEDSAVYYCARGKG
notes: also called Peptide # 32
B25: CKASGYIFTSYDIDWVRQTP (SEQ. ID. No. 6) (peptide)
peptide: CKASGYIFTSYDIDWVRQTP
notes: also called Peptide # 3
B26: ELTRLTSEDSAVYFCARGDY (SEQ. ID. No. 12) (peptide)
peptide: ELTRLTSEDSAVYFCARGDY
notes: also called Peptide # 9
B27: LVTVSAAKTTPPSVYPLVPV (SEQ. ID. No. 38) (peptide)
peptide: LVTVSAAKTTPPSVYPLVPV
notes: also called Peptide # 35
B28: CRASQSVSTSSYSYMHWY (SEQ. ID. No. 54) (peptide)
peptide: CRASQSVSTSSYSYMHWY
B29: SCKASGYIFTS (SEQ. ID. No. 47) (peptide)
peptide: SCKASGYIFTS
B30: SVSTSSYSYMHWY (SEQ. ID. No. 59) (peptide)
peptide: SVSTSSYSYMHWY
B31: TSSYSYMHWY (SEQ. ID. No. 62) (peptide)
peptide: TSSYSYMHWY
B32: LSCKASGYIFTS (SEQ. ID. No. 46) (peptide)
peptide: LSCKASGYIFTS
B33: KASGYIFTS (SEQ. ID. No. 49) (peptide)
peptide: KASGYIFTS
B34: SCRASQSVSTSSYSYMHWY (SEQ. ID. No. 53) (peptide)
peptide: SCRASQSVSTSSYSYMHWY
B35: SYMHWY (SEQ. ID. No. 65) (peptide)
peptide: SYMHWY
B36: VSTSSYSYMHWY (SEQ. ID. No. 60) (peptide)
peptide: VSTSSYSYMHWY
B37: QSVSTSSYSYMHWY (SEQ. ID. No. 58) (peptide)
peptide: QSVSTSSYSYMHWY
B38: CKASGYIFTS (SEQ. ID. No. 48) (peptide)
peptide: CKASGYIFTS
B39: GYIFTS (SEQ. ID. No. 52) (peptide)
peptide: GYIFTS
B40: KPGASVKLSCKASGYIFTS (SEQ. ID. No. 39) (peptide)
peptide: KPGASVKLSCKASGYIFTS
B41: ASQSVSTSSYSYMHWY (SEQ. ID. No. 56) (peptide)
peptide: ASQSVSTSSYSYMHWY
B42: SVKLSCKASGYIFTS (SEQ. ID. No. 43) (peptide)
peptide: SVKLSCKASGYIFTS
B43: GASVKLSCKASGYIFTS (SEQ. ID. No. 41) (peptide)
peptide: GASVKLSCKASGYIFTS
B44: STSSYSYMHWY (SEQ. ID. No. 61) (peptide)
peptide: STSSYSYMHWY
B45: VKLSCKASGYIFTS (SEQ. ID. No. 44) (peptide)
peptide: VKLSCKASGYIFTS
B46: SGYIFTS (SEQ. ID. No. 51) (peptide)
peptide: SGYIFTS
B47: KLSCKASGYIFTS (SEQ. ID. No. 45) (peptide)
peptide: KLSCKASGYIFTS
B48: SSYSYMHWY (SEQ. ID. No. 63) (peptide)
peptide: SSYSYMHWY
B49: ASVKLSCKASGYIFTS (SEQ. ID. No. 42) (peptide)
peptide: ASVKLSCKASGYIFTS
B50: YSYMHWY (SEQ. ID. No. 64) (peptide)
peptide: YSYMHWY
B51: SYSYMHWY (printed with SEQ. ID. No. 63, a number already used for …) (peptide)
peptide: SYSYMHWY
B52: SQSVSTSSYSYMHWY (SEQ. ID. No. 57) (peptide)
peptide: SQSVSTSSYSYMHWY
B53: PGASVKLSCKASGYIFTS (SEQ. ID. No. 40) (peptide)
peptide: PGASVKLSCKASGYIFTS
B54: ASGYIFTS (SEQ. ID. No. 50) (peptide)
peptide: ASGYIFTS

What follows are binders tested against T1, Full length recombinant HBcAg (rHBcAg) encompassing residues 1-183 (hepatitis B virus, UniProt P03146 1-183) (assay: EIA, support-bound peptide, HBcAg 2 ug/well).
T1 construct: range 1-183; also called hepatitis B virus core antigen
T1 sequence (P03146 whole entry, the tested form may be a part): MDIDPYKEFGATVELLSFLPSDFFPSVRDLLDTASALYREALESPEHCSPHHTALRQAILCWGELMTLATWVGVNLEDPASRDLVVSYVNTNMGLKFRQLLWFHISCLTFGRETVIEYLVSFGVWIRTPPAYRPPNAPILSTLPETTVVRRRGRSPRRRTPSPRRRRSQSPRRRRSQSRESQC

In order of rising “OD at 405 nm” value:
1. B10  0.273 OD
2. B1  0.289 OD
3. B3  0.323 OD
4. B21  0.325 OD
5. B20  0.338 OD
6. B14  0.356 OD
7. B11  0.357 OD
8. B9  0.363 OD
9. B4  0.369 OD
10. B22  0.409 OD
11. B16  0.465 OD
12. B17  0.498 OD
13. B6  0.625 OD
14. B8  0.649 OD
15. B13  0.706 OD
16. B2  0.783 OD
17. B7  0.883 OD
18. B5  0.898 OD
19. B18  0.981 OD
20. B12  1.11 OD
21. B15  1.2 OD
22. B19  1.44 OD

These binders were tested against T1, Full length recombinant HBcAg (rHBcAg) … (assay: EIA, support-bound peptide, HBcAg 0.2 ug/well).

In order of falling “OD at 405 nm” value:
1. B19  0.574 OD
2. B18  0.304 OD
3. B13  0.256 OD
4. B15  0.227 OD
5. B2  0.213 OD
6. B6  0.207 OD
7. B12  0.207 OD
8. B8  0.205 OD
9. B7  0.194 OD
10. B5  0.192 OD
11. B17  0.173 OD
12. B16  0.162 OD
13. B22  0.141 OD
14. B9  0.134 OD
15. B14  0.133 OD
16. B3  0.124 OD
17. B4  0.123 OD
18. B21  0.121 OD
19. B1  0.114 OD
20. B20  0.114 OD
21. B11  0.112 OD
22. B10  0.084 OD

Each binder was assayed against T2, non-structural 3 protein (NS3) of the hepatitis C virus (HCV) (hepatitis C virus) (assay: EIA, support-bound peptide, HCV NS3 control).
T2 construct: Control antigen; also called HCV NS3

In order of falling “OD at 405 nm” value:
1. B8  0.206 OD
2. B13  0.182 OD
3. B6  0.124 OD
4. B21  0.109 OD
5. B20  0.106 OD
6. B23  0.089 OD
7. B26  0.073 OD
8. B17  0.052 OD
9. B9  0.041 OD
10. B18  0.038 OD
11. B5  0.035 OD
12. B24  0.035 OD
13. B7  0.035 OD
14. B12  0.035 OD
15. B15  0.035 OD
16. B25  0.032 OD
17. B27  0.032 OD
18. B1  0.028 OD
19. B19  0.028 OD
20. B22  0.027 OD
21. B10  0.024 OD
22. B14  0.022 OD
23. B2  0.021 OD
24. B3  0.021 OD
25. B4  0.021 OD
26. B16  0.021 OD
27. B11  0.02 OD

Each binder was assayed against T1, Full length recombinant HBcAg (rHBcAg) … (assay: EIA, support-bound peptide, HBcAg 5 ug/ml).

In order of rising “OD at 490 nm” value:
1. B35  0.218 OD
2. B33  0.237 OD
3. B50  0.245 OD
4. B38  0.255 OD
5. B37  0.282 OD
6. B51  0.283 OD
7. B29  0.297 OD
8. B30  0.305 OD
9. B52  0.31 OD
10. B48  0.311 OD
11. B31  0.317 OD
12. B41  0.324 OD
13. B36  0.369 OD
14. B44  0.372 OD
15. B46  0.389 OD
16. B54  0.407 OD
17. B39  0.414 OD
18. B32  0.565 OD
19. B40  1.34 OD
20. B28  1.42 OD
21. B34  1.45 OD
22. B53  1.72 OD
23. B43  2.86 OD
24. B49  3.22 OD
25. B42  3.36 OD
26. B47  3.69 OD
27. B45  3.7 OD

These binders were tested against T1, Full length recombinant HBcAg (rHBcAg) … (assay: competition EIA, peptide added to HBcAg before mAb 4-2 (competitor); OD of bound mAb).

In order of rising “OD at 490 nm” value:
1. B45  0.152 OD
2. B42  0.175 OD
3. B53  0.182 OD
4. B40  0.202 OD
5. B43  0.205 OD
6. B49  0.207 OD
7. B32  0.777 OD
8. B29  0.784 OD
9. B47  0.808 OD
10. B38  0.851 OD
11. B33  0.866 OD
12. B46  0.887 OD
13. B39  0.903 OD
14. B54  0.92 OD
